In PMC10397247:
Blank lines part the entries; values can stand above or below the binder they belong to.

Legend:
[1] = molecular target: T1, 4H2931-AA; assay: two-hybrid library CCmax; conditions: mean of both orientations;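 also: natural log of median RNA to DNA barcode read ratio; higher means stronger binding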
T1 chain: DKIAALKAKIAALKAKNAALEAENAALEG

[2] = molecular target: T2, 4H56-AA; assay: two-hybrid library CCmax; conditions: mean of both orientations;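 also: natural log of median RNA to DNA barcode read ratio; higher means stronger binding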
T2 chain: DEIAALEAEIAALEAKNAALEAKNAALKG

[3] = molecular target: T3, 4H3073-AA; assay: two-hybrid library CCmax;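 also: natural log of median RNA to DNA barcode read ratio; higher means stronger binding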
T3 chain: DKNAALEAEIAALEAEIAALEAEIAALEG

[4] = molecular target: T4, 4H3015-AA; assay: two-hybrid library CCmax;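 also: natural log of median RNA to DNA barcode read ratio; higher means stronger binding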
T4 chain: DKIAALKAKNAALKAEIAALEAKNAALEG

[5] = molecular target: T5, 4H452-AA; assay: two-hybrid library CCmax; conditions: mean of both orientations;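 also: natural log of median RNA to DNA barcode read ratio; higher means stronger binding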
T5 chain: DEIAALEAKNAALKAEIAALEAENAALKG

[6] = molecular target: T6, 4H3001-AA; assay: two-hybrid library CCmax; conditions: mean of both orientations;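 also: natural log of median RNA to DNA barcode read ratio; higher means stronger binding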
T6 chain: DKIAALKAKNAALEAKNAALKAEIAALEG

[7] = molecular target: T7, 4H3438-AA; assay: two-hybrid library CCmax; conditions: mean of both orientations
T7 chain: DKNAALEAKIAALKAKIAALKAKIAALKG

[8] = molecular target: T8, 4H2165-AA; assay: two-hybrid library CCmax; conditions: mean of both orientations
T8 chain: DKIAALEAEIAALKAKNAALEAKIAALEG

[9] = molecular target: T9, 4H2253-AA; assay: two-hybrid library CCmax; conditions: mean of both orientations
T9 chain: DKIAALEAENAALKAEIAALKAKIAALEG

[10] = molecular target: T10, 4H2466-AA; assay: two-hybrid library CCmax; conditions: mean of both orientations
T10 chain: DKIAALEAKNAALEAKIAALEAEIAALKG

[11] = molecular target: GCN2_T; assay: two-hybrid library CCmax
[12] = molecular target: T11, 4H_BCR; assay: two-hybrid library CCmax; conditions: mean of both orientations
T11 chain: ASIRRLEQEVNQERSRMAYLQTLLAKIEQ

[13] = molecular target: T12, 4H2330-AA; assay: two-hybrid library CCmax; conditions: mean of both orientations
T12 chain: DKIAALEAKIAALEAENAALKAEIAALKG

[14] = molecular target: T13, 4H406-AA; assay: two-hybrid library CCmax; conditions: mean of both orientations
T13 chain: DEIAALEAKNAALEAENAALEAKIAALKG

[15] = molecular target: T14, 4H2592-AA; assay: two-hybrid library CCmax; conditions: mean of both orientations
T14 chain: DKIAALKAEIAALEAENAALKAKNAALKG

[16] = molecular target: T15, 4H2343-AA; assay: two-hybrid library CCmax; conditions: mean of both orientations
T15 chain: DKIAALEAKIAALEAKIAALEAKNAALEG

[17] = molecular target: T16, 4H2732-AA; assay: two-hybrid library CCmax; conditions: mean of both orientations
T16 chain: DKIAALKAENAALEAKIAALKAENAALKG

[18] = molecular target: T17, 4H2124-AA; assay: two-hybrid library CCmax
T17 chain: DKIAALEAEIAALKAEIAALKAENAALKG

[19] = molecular target: 4H_GCN4; assay: two-hybrid library CCmax; conditions: mean of both orientations
[20] = molecular target: T18, 4H2774-AA; assay: two-hybrid library CCmax; conditions: mean of both orientations
T18 chain: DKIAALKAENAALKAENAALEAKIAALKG

[21] = molecular target: T19, 4H_APH; assay: two-hybrid library CCmax; conditions: mean of both orientations
T19 chain: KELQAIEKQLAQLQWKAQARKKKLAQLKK

[22] = molecular target: T20, 4H347-AA; assay: two-hybrid library CCmax; conditions: mean of both orientations
T20 chain: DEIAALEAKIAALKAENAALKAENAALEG

[23] = molecular target: T21, 4H249-AA; assay: two-hybrid library CCmax; conditions: mean of both orientations
T21 chain: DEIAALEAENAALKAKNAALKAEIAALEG

[24] = molecular target: T22, 4H607-bA; assay: two-hybrid library CCNG1
T22 chain: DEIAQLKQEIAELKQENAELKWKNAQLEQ

[25] = molecular target: T23, 4H4001-bA; assay: two-hybrid library CCNG1
T23 chain: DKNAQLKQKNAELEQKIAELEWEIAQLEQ

[26] = molecular target: T24, 4H2667-bA; assay: two-hybrid library CCNG1
T24 chain: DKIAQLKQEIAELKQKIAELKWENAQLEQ

[27] = molecular target: T25, 4H3189-bA; assay: two-hybrid library CCNG1
T25 chain: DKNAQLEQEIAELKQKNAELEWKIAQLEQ

[28] = molecular target: T26, 4H331-bA; assay: two-hybrid library CCNG1
T26 chain: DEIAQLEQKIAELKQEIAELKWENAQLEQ

[29] = molecular target: T27, 4H3185-bA; assay: two-hybrid library CCNG1
T27 chain: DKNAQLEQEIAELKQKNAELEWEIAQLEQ

[30] = molecular target: T28, 4H967-bA; assay: two-hybrid library CCNG1
T28 chain: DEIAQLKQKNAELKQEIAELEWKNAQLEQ

[31] = molecular target: T29, 4H953-bA; assay: two-hybrid library CCNG1
T29 chain: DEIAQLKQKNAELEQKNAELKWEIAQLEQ

[32] = molecular target: T30, 4H2729-bA; assay: two-hybrid library CCNG1
T30 chain: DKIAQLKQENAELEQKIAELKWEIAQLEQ

[33] = molecular target: T31, 4H3606-bA; assay: two-hybrid library CCNG1
T31 chain: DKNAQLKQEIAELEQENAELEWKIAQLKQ

[34] = molecular target: T32, 4H687-bA; assay: two-hybrid library CCNG1
T32 chain: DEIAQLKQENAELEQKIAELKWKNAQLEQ

[35] = molecular target: T33, 4H338-bA; assay: two-hybrid library CCNG1
T33 chain: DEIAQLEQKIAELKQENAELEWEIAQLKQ

[36] = molecular target: T34, 4H3427-bA; assay: two-hybrid library CCNG1
T34 chain: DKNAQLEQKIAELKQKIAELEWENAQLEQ

[37] = molecular target: T35, 4H3855-bA; assay: two-hybrid library CCNG1
T35 chain: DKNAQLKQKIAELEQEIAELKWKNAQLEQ

[38] = molecular target: T36, 4H462-bA; assay: two-hybrid library CCNG1
T36 chain: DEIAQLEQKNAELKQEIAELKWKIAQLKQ

[39] = molecular target: T37, 4H2697-bA; assay: two-hybrid library CCNG1
T37 chain: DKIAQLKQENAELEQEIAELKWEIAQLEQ

[40] = molecular target: T38, 4H883-bA; assay: two-hybrid library CCNG1
T38 chain: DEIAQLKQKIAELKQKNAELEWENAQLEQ

[41] = molecular target: T39, 4H797-bA; assay: two-hybrid library CCNG1
T39 chain: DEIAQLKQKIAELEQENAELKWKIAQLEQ

[42] = molecular target: T40, 4H3926-bH; assay: two-hybrid library CCNG1
T40 chain: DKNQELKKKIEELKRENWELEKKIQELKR

[43] = molecular target: T41, 4H3112-bA; assay: two-hybrid library CCNG1
T41 chain: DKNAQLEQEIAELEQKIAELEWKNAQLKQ

[44] = molecular target: T42, 4H3297-bA; assay: two-hybrid library CCNG1
T42 chain: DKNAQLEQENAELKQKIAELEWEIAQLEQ

[45] = molecular target: T43, 4H454-bA; assay: two-hybrid library CCNG1
T43 chain: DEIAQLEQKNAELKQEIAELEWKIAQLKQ

[46] = molecular target: T44, 4H3354-bA; assay: two-hybrid library CCNG1
T44 chain: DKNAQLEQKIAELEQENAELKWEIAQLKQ

[47] = molecular target: T45, 4H717-bA; assay: two-hybrid library CCNG1
T45 chain: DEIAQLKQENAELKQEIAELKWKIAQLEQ

[48] = molecular target: T46, 4H370-bA; assay: two-hybrid library CCNG1
T46 chain: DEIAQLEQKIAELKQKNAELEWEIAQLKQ

[49] = molecular target: T47, 4H72-bA; assay: two-hybrid library CCNG1
T47 chain: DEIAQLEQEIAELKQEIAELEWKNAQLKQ

[50] = molecular target: T48, 4H3843-bA; assay: two-hybrid library CCNG1
T48 chain: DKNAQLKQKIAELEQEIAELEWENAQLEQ

[51] = molecular target: T49, 4H3782-bA; assay: two-hybrid library CCNG1
T49 chain: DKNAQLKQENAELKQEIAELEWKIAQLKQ

[52] = molecular target: T50, 4H568-bA; assay: two-hybrid library CCNG1
T50 chain: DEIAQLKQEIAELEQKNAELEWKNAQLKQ

[53] = molecular target: T51, 4H754-bA; assay: two-hybrid library CCNG1
T51 chain: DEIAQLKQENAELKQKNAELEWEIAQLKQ

[54] = molecular target: T52, 4H908-bA; assay: two-hybrid library CCNG1
T52 chain: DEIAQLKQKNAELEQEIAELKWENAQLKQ

[55] = molecular target: T53, P4A-bS; assay: two-hybrid library CCNG1
T53 chain: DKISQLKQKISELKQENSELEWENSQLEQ

[56] = molecular target: T54, 4H918-bA; assay: two-hybrid library CCNG1
T54 chain: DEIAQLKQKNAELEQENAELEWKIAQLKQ

Sequence of 4H_GCN4 (chain, as listed by the source): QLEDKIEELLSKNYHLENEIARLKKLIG

interaction score [1]: -1.45 | interaction score [2]: -1.73 | interaction score [3]: 1.36 | interaction score [4]: -1.19 | interaction score [5]: -1.95 | interaction score [6]: -1.89 | interaction score [7]: -0.0325 | interaction score [8]: -1.36 | interaction score [9]: -1.14 | interaction score [10]: -1.16 | interaction score [11]: -1.07 | interaction score [12]: -2.09 | interaction score [13]: -1.05 | interaction score [14]: -1.71 | interaction score [15]: -0.666 | interaction score [16]: -0.871 | interaction score [17]: -1.2 | interaction score [18]: 1.61 | interaction score [19]: -1.93 | interaction score [20]: -1.38 | interaction score [21]: -1.67 | interaction score [22]: -1.2 | interaction score [23]: -1.78
Binder: DKIAALEAEIAALKAEIAALKAENAALKG [4H2124-AA]

interaction score [24]: -1.24 | interaction score [25]: 1.02 | interaction score [26]: 0.263 | interaction score [27]: -0.909 | interaction score [28]: 0.846 | interaction score [29]: -0.669 | interaction score [30]: -1.08 | interaction score [31]: -0.966 | interaction score [32]: 0.719 | interaction score [33]: 0.0163 | interaction score [34]: -1.37 | interaction score [35]: 0.164 | interaction score [36]: 0.719 | interaction score [37]: -0.565 | interaction score [38]: -0.172 | interaction score [39]: 0.478 | interaction score [40]: -0.985 | interaction score [41]: -1.09 | interaction score [42]: -1.75 | interaction score [43]: 0.96 | interaction score [44]: 0.0617 | interaction score [45]: 1.25 | interaction score [46]: -0.643 | interaction score [47]: -1.61 | interaction score [48]: -0.0583 | interaction score [49]: 0.976 | interaction score [50]: 1.49 | interaction score [51]: -0.43 | interaction score [52]: 0.688 | interaction score [53]: -1.06 | interaction score [54]: -0.691 | interaction score [55]: -1.72 | interaction score [56]: -1.68
Binder: DKIAQLKQEIAELKQKIAELKWENAQLEQ [4H2667-bA]
